According to patent US20090304687A1, “METHODS OF USING CD40 BINDING AGENTS” (Seattle Genetics , Inc., priority 2005, published 2009):
“Also recorded” adds a separate entry of the source.

Tests used:
[1] = system: Ramos cells; experiment: In vitro signaling in Ramos cells, western blot; format: cell-based; conditions: 2% serum, antibody cross-linked with anti-human IgG, 15 min
Description: Humanized anti-CD40 antibody (Hu sgn-0; also referred to as SGN-40) binding to CD40^+ NHL cells activates signaling through the ERK1/2 MAP Kinase, p38 MAP Kinase, and NFkB pathways. Ramos cells (cultured in 2% serum) were stimulated with the humanized CD40 antibody cross-linked (XL) with anti-human IgG for 15 min. Activation of signaling was detected by western blot analysis with antibodies recognizing phosphorylation of ERK1/2 (Thr202/Tyr204), p38 (ThrlSO/Tyr182), and AKT (Ser473). NFkB activation was detected by measuring the degradation of IkB-a protein.

[2] = system: Ramos cells; experiment: Bid upregulation and PARP/caspase-3 cleavage in Ramos cells, western blot; format: cell-based
Description: In a further study, Ramos cells (2% FBS) were treated with cross-linked humanized CD40 antibody or control hIgG over a 72 hr time course ([…]). Normalized protein extracts were analyzed by western blotting analysis for the pro-apoptotic Bcl-2 family member Bid. […] Referring to FIG. 3B, degradation of the caspase-3/7 substrate poly(ADP-ribose) polymerase (cleaved-PARP) was monitored over time by western blotting with an antibody recognizing PARP cleaved at Asp214. Consistent with the apoptosis-inducing activity of the humanized CD40 antibody, cleavage of caspase-3 and its downstream substrate poly (ADP-ribose) polymerase was detected in NHL cell lines. Antibody-mediated signaling was qualitatively similar to that mediated by trimeric recombinant humanized CD40 ligand (rhCD40L) (data not shown). However, the overall magnitude of signaling was lower with the humanized CD40 antibody compared to rhCD40L, consistent with the partial agonistic properties of SGN-40.

[3] = system: Ramos cells; experiment: In vitro drug combinations with SGN-40, 3H-thymidine proliferation, Combination Index; format: cell-based
Description: Cells were treated for 72 hours, then labeled with ^3H-thymidine for 4 hours to measure proliferation rates. Dose response curves of drugs alone and in combination with the humanized CD40 antibody were reduced in Excel, and Combination Indices (CI) determined using the Calcusyn analysis package (Biosoft). […] CI values equal to 1.0 indicate an additive integration. For these studies, n=3 unless otherwise indicated.

[4] = system: Ramos tumor cells; experiment: SCID mouse lymphoma xenograft model, subcutaneous Ramos tumor growth; format: in vivo, SCID mice; conditions: 4 mg/kg/dose i.p. 3 times per week, start 13 days after implant, 14-day study period
Description: The anti-tumor activity of the humanized CD40 antibody was assayed in a SCID mouse lymphoma xenograft model. Five million Ramos tumor cells were injected subcutaneously into SCID mice (10/group) thirteen days prior to starting drug treatment. Murine CD40 antibody or the humanized S2C6 was given intra-peritoneally 3 times per week (4 mg/kg/dose) with 8 or 5 doses administered. Mice were examined for tumor growth, and tumor volume was measured weekly during the 14-day study period. The results in FIG. 4 show a nearly 9-fold increase in the growth of tumors in control mice, whereas over the same time period, tumor growth in mice treated with either murine CD40 antibody or humanized S2C6 was negligible.

[5] = system: Ramos tumor cells; experiment: SCID mouse lymphoma xenograft model, intravenous Ramos cells, survival; format: in vivo; conditions: 4 mg/kg/dose i.p. two times per week, five doses, 10 mice/group
Description: The efficacy of the humanized CD40 antibody on survival of tumor-bearing mice was assayed in a SCID mouse lymphoma xenograft model. SCID mice (10/group) were inoculated intravenously with one million Ramos tumor cells three days prior to antibody treatment. Mice were treated with murine or humanized CD40 antibody, or an Ig control, administered intraperitoneally two times per week (4 mg/kg/dose) for a total of five doses. The mouse cages were examined daily for mortality.

[6] = system: IM-9 cells; experiment: IM-9 disseminated xenograft model, survival; format: in vivo, SCID mice; conditions: data not shown
Description: Briefly IM-9 cells (1×10^6 per mouse) were introduced intravenously into SCID mice in a disseminated xenograft model. Animals were treated 3 days post tumor cell injection with either SGN-40(4.0 mg/kg, q2d x9, ip) or prednisone (0.15 mg/kg, qld x5, po) alone, or in combination. Survival data was plotted using a Kaplan-Meier curve (data not shown).

[7] = Phase I escalated dosing study in multiple myeloma patients, adverse events; format: in vivo, human
Description: An open-label, multi-dose, single arm, Phase I protocol initiated at five clinical sites. Initially, enrolled patients, diagnosed with multiple myeloma, received weekly intravenous infusions of a humanized CD40 antibody (hu sgn-0) with a cohort-specific dose level of 0.5, 1, 2 and 4 mg/kg/wk. […] Cohort specific doses of 3, 4, 6 and 8 mg/kg/week were used. The patient eligibility criteria included: patients must have failed at least two prior systemic therapies; at least four weeks since chemotherapy; patients who experience a minimal response (MR) or greater are eligible for a second cycle of therapy.
Patients were monitored for adverse events. […] The drug-loading period reduced the first-dose cytokine release syndrome.

[8] = Pharmacokinetics of SGN-40 in patients with multiple myeloma; format: in vivo, human; conditions: for AUC0-50: Days 0 to 50, 1 compartment model fit; for T ½: after the last infusion, 1 compartment model fit; for Day 36 Cmin: trough 7 days after last dose; for Day 29 Cmax: serum, after last dose, mean ± SD
Description: The humanized CD40 antibody, SGN-40, was administered twice during the first week and once a week […] for the next 4 weeks to patients with multiple myeloma. […] The peak serum concentration (Cmax) of SGN-40 observed following the last dose on Day 29 and the subsequent trough levels 7 days later on Day 36 are shown for each cohort in Table 6. […] (n/a means not applicable.) […] Data are presented as the mean±standard deviation (N>3) with the exception of Cohort I Day 36 Cmin (N=2), and Cohort II, T1/2 and AUC0-50 (N-1). The patients maintained a plasma SGN-40 concentration of at least about 10 micrograms/ml.

[9] = biological target: CD40 immobilized on microassay plates (UniProt P25942 21-193, limits assumed); experiment: serially diluted antibody on CD40 immobilized on microassay plates
Description: (§1) Antibodies constructed using these variant light and heavy chain variable domains were analyzed for binding activity. Each antibody was diluted to equivalent concentrations, and then serially diluted. The diluted antibodies were assayed for binding to CD40 immobilized on microassay plates.

[10] = biological target: CD40 (Homo sapiens, UniProt P25942); experiment: Binding of variant antibodies to CD40 immobilized on microassay plates; set-up: Binding Data 1 / Binding Data 2 / Binding Data 3: unit not given here
Description: as §1, with “plates. Affinity binding data for the variant antibodies are shown below in Table 3.” for “plates.”

[11] = system: human peripheral B cells; conditions: Paulie et al., 1989; cited from earlier work
[12] = U.S. Pat. No. 6,838,261; cited from earlier work
[13] = biological target: CD40 and CD40L (Homo sapiens, UniProt P25942); conditions: literature; cited from earlier work
Sequence of CD40 and CD40L (P25942 21-277): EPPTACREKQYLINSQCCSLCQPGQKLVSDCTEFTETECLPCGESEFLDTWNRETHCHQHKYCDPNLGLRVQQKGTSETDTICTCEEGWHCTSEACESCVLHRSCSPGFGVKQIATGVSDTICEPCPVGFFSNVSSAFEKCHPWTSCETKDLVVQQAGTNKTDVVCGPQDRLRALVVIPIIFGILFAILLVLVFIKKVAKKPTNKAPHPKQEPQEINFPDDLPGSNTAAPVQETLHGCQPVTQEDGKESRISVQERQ

Sequence of CD40 (P25942 21-277): as above
Sequence of CD40 immobilized on microassay plates (P25942 21-193 limits assumed): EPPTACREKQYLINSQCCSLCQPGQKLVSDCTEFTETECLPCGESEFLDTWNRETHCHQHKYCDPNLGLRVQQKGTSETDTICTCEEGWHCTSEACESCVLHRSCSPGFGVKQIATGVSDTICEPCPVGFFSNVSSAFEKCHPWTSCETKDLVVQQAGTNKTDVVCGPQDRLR

B1: hu sgn-0 (antibody, V domains shown)
VH: EVQLVESGGGLVQPGGSLRLSCAASGYSFTGYYIHWVRQAPGKGLEWVARVIPNNGGTSYNQKFKGRFTISRDNSKNTLYLQMNSLRAEDTAVYYCAREGIYWWGQGTLVTVS
VL: DIQMTQSPSSLSASVGDRVTITCRSSQSLVHSNGNTFLHWYQQKPGKAPKLLIYTVSNRFSGVPSRFSGSGSGTDFTLTISSLQPEDFATYYCSQTTHVPWTFGQGTKVEIKR
notes: also called SGN-40; Template
AKT signaling [1]: modestly elevated
cleavage of caspase-3 and poly (ADP-ribose) polymerase ([2]; NHL cell lines, western blot): detected
Bid protein ([2]; Ramos cells 2% FBS, cross-linked antibody, 72 hr time course, 1.0 mg/ml mAb): upregulated Bid
overall magnitude of signaling compared to rhCD40L ([2]; data not shown): lower
effect on activity of chemotherapeutic agents [3]: enhances the activity of several chemotherapeutic agents
tumor growth [4]: negligible
mice alive 90 days after tumor implant [5]: all ten
survival ([6]; SGN-40 4.0 mg/kg q2d x9 ip, 3 days post tumor cell injection): similarly effective in promoting survival
efficacy with or without prednisone ([6]; prednisone 0.15 mg/kg qld x5 po): essentially the same in the presence or absence of prednisone
symptoms of first dose-associated cytokine release after amended protocol (intra-patient dose escalation) ([7]; drug-loading period, Table 5 schema): markedly reduced
antitumor activity ([7]; low doses tested thus far, multiple myeloma patients): preliminary evidence for antitumor activity
TNF-alpha levels in the plasma ([7]; multiple myeloma patients): elevated following the first infusion only
cytokine release ([7]; multiple myeloma patients): appeared to trigger cytokine release
adverse event with the first dose ([7]; weekly i.v. infusion, 4 mg/kg level, multiple myeloma patients): Grade 3 cytokine release syndrome
AUC0-50 ([8]; Cohort I (1,1,2,3,3,3)): 653.93 ± 154.65 µg·days/mL
T ½ ([8]; Cohort I (1,1,2,3,3,3)): 64.1 ± 25.9 h
Day 36 Cmin ([8]; Cohort I (1,1,2,3,3,3), N=2): 9.94 µg/mL
Day 29 Cmax ([8]; Cohort I (Day 1/4/8/15/22/29: 1,1,2,3,3,3)): 45.40 ± 14.31 µg/mL
AUC0-50 ([8]; Cohort II (1,1,2,4,4,4)): 2086.02 µg·days/mL
T ½ ([8]; Cohort II (1,1,2,4,4,4)): 111 h
Day 36 Cmin ([8]; Cohort II (1,1,2,4,4,4)): 69.93 ± 14.08 µg/mL
Day 29 Cmax ([8]; Cohort II (Day 1/4/8/15/22/29: 1,1,2,4,4,4)): 143.00 ± 27.78 µg/mL
AUC0-50 ([8]; Cohort III (1,1,2,4,6,6)): 1988.88 ± 439.74 µg·days/mL
T ½ ([8]; Cohort III (1,1,2,4,6,6)): 92.4 ± 32.9 h
Day 36 Cmin ([8]; Cohort III (1,1,2,4,6,6)): 41.57 ± 19.22 µg/mL
Day 29 Cmax ([8]; Cohort III (Day 1/4/8/15/22/29: 1,1,2,4,6,6)): 149.25 ± 29.34 µg/mL
AUC0-50 ([8]; Cohort IV (1,1,2,4,6,8)): 3441.73 ± 1382.79 µg·days/mL
T ½ ([8]; Cohort IV (1,1,2,4,6,8)): 129 ± 44.2 h
Day 36 Cmin ([8]; Cohort IV (1,1,2,4,6,8)): 112.84 ± 50.40 µg/mL
Day 29 Cmax ([8]; Cohort IV (Day 1/4/8/15/22/29: 1,1,2,4,6,8)): 244.25 ± 96.00 µg/mL
plasma SGN-40 concentration maintained ([8]; multiple myeloma patients): at least 10 micrograms/ml
Binding Data 1 [9]: 75.3
Binding Data 2 [9]: 75.3

B2: SGN-14: parent murine monoclonal CD40 antibody (donor), heavy SEQ ID NO: 1, light SEQ ID NO: 12; ATCC PTA-110 (antibody, V domains shown)
VH: EVQLQQSGPDLVKPGASVKISCKASGYSFTGYYIHWVKQSHGKSLEWIGRVIPNNGGTSYNQKFKGKAILTVDKSSSTAYMELRSLTSEDSAVYYCAREGIYWWGHGTTLTVS
VL: DVVVTQTPLSLPVSLGAQASISCRSSQSLVHSNGNTFLHWYLQKPGQSPKLLIYTVSNRFSGVPDRFSGSGSGTDFTLKISRVEAEDLGVYFCSQTTHVPWTFGGGTKLEIQR
modifications: MusMusculus
Binding Data 3 ([10]; affinity binding data, serially diluted antibody on immobilized CD40): 1.16
binding activity compared with the parent murine antibody ([10]; in words): approaching that of the parent murine antibody; also recorded: more closely approaching that of the parent murine antibody
tumor growth [4]: negligible
mice alive 90 days after tumor implant [5]: eight of the ten
activity on human peripheral B cells (primary B cell proliferation) [11]: stimulate primary B cell proliferation in a dose dependent manner
anti-neoplastic activity in vivo [12]: anti-neoplastic activity in vivo
effect on the interaction between CD40 and CD40L [13]: can increase the interaction between CD40 and CD40L
